Measurements as given in the supplement of paper PMC12764529.
± gives the half width of the 95% confidence interval.

What was measured:
[1] = folding stability dG unfold from chymotrypsin proteolysis; higher = more stable
Outline: (§1)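 How resistant each design was to proteolysis was captured as K50, inferred by Bayesian fitting of sequencing counts. Unfolding free energy was then derived relative to a sequence-predicted unfolded-state K50 and a shared folded-state K50, per protease or combined. Digestion used trypsin and chymotrypsin at 11 threefold-diluted concentrations plus a no-protease condition, on mini-proteins under 80 residues without cysteine in a PA-tagged cDNA display construct. Designs were kept only when AlphaFold2 dimer inter-PAE was above 15.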

[2] = folding stability dG unfold (combined trypsin and chymotrypsin); higher = more stable
Outline: as §1

[3] = folding stability dG unfold from trypsin proteolysis; higher = more stable
Outline: as §1

Sequence: SAGGSAGGSAGMTLTLEFTDPEVAIPLAEKLAEELGLELVEIEEREEGERPVYLVTLKVPSAGGSAGGSAGG [r11_232_JUSTAS]
- folding stability dG unfold [1]: 1.52 ± 0.021 kcal/mol
- folding stability dG unfold [2]: 1.61 ± 0.043 kcal/mol
- folding stability dG unfold [3]: 1.63 ± 0.056 kcal/mol

Sequence: SAGGSAGGSAGMTLTVTSPSSDTPIGTIELPSSLSEEELEAAVEAVRAALPPDVTVEVTGSAGGSAGGSAGG [r11_1081_JUSTAS]
- folding stability dG unfold [1]: 0.954 ± 0.046 kcal/mol
- folding stability dG unfold [2]: 1.13 ± 0.093 kcal/mol
- folding stability dG unfold [3]: 1.41 ± 0.084 kcal/mol

Sequence: SAGGSAGGSAGMTRTVTFTITDPNSSNTTTITVPTTSEQDVAAAKAALKAANPNVTITLTSAGGSAGGSAGG [r11_233_JUSTAS]
- folding stability dG unfold [1]: 0.954 ± 0.092 kcal/mol
- folding stability dG unfold [2]: 0.718 ± 0.076 kcal/mol
- folding stability dG unfold [3]: 0.3 ± 0.12 kcal/mol

Sequence: SAGGSAGGSAGMTVTTITKTYPFDPNKSLSFTVPPGATITDKKTDADIAKGTVTVTVTVASAGGSAGGSAGG [r11_701_JUSTAS]
- folding stability dG unfold [1]: 0.355 ± 0.13 kcal/mol
- folding stability dG unfold [2]: 0.436 ± 0.13 kcal/mol
- folding stability dG unfold [3]: 0.345 ± 0.053 kcal/mol

Sequence: SAGGSAGGSAGMTVTVPPDLDPESAIAALKAAAPASVKTVTLTIVDGEGPTTTVTVDITGSAGGSAGGSAGG [r17_215_JUSTAS]
- folding stability dG unfold [1]: 0.209 ± 0.11 kcal/mol
- folding stability dG unfold [2]: 0.00145 ± 0.096 kcal/mol
- folding stability dG unfold [3]: -0.402 ± 0.18 kcal/mol

Sequence: SAGGSAGGSAGMTYRVRIENADGEVVTIEISADELREKGLTLEELLPPNARIVEVEEVEPSAGGSAGGSAGG [r11_829_TrROS_Hall]
- folding stability dG unfold [1]: 3.61 ± 0.063 kcal/mol
- folding stability dG unfold [2]: 3.63 ± 0.09 kcal/mol
- folding stability dG unfold [3]: 3.8 ± 0.16 kcal/mol

Sequence: SAGGSAGGSAGMVDKKTGKPVEKVKVIIRNKNGKKEEKEVTLEELKELAENLPYEIEFEKSAGGSAGGSAGG [r17_125_TrROS_Hall]
- folding stability dG unfold [1]: 0.82 ± 0.1 kcal/mol
- folding stability dG unfold [2]: 1 ± 0.25 kcal/mol
- folding stability dG unfold [3]: 1.16 ± 0.079 kcal/mol

Sequence: SAGGSAGGSAGMVETVSTTTSVETGPDSTRYTTTTTTVLVTDSSGTPIATTTTTTTTVTASAGGSAGGSAGG [r17_139_JUSTAS]
- folding stability dG unfold [1]: 0.314 ± 0.17 kcal/mol
- folding stability dG unfold [2]: 0.986 ± 0.056 kcal/mol
- folding stability dG unfold [3]: 1.45 ± 0.051 kcal/mol

Sequence: SAGGSAGGSAGMVIELPDGRKAIIVKYDKETKRFYVEIVDKKTGEKKIYEFKSLEEALKASAGGSAGGSAGG [r17_300_TrROS_Hall]
- folding stability dG unfold [1]: 2.86 ± 0.092 kcal/mol
- folding stability dG unfold [2]: 2.79 ± 0.15 kcal/mol
- folding stability dG unfold [3]: 2.18 ± 0.16 kcal/mol

Sequence: SAGGSAGGSAGMVITLPNGEKVEITFDKENKKITITFPDGKKVEIEIEGMSLEEILKALKSAGGSAGGSAGG [r11_729_TrROS_Hall]
- folding stability dG unfold [1]: 3.22 ± 0.075 kcal/mol
- folding stability dG unfold [2]: 3.59 ± 0.089 kcal/mol
- folding stability dG unfold [3]: 3.84 ± 0.14 kcal/mol

Sequence: SAGGSAGGSAGMVLPRPDGSLVVITEHPDGTVTVTFAPPDKPITIEVPKEEPVDIRVFPLSAGGSAGGSAGG [r11_164_TrMRF]
- folding stability dG unfold [1]: 0.324 ± 0.087 kcal/mol
- folding stability dG unfold [2]: 1.02 ± 0.046 kcal/mol
- folding stability dG unfold [3]: 1.39 ± 0.043 kcal/mol

Sequence: SAGGSAGGSAGMVTETTVSRLPDGTVTTTTTEYVVHPDGSLEPVRERTTTTPVPPDVPAASAGGSAGGSAGG [r11_440_JUSTAS]
- folding stability dG unfold [1]: 1.142 ± 0.011 kcal/mol
- folding stability dG unfold [2]: 0.897 ± 0.037 kcal/mol
- folding stability dG unfold [3]: 0.396 ± 0.051 kcal/mol

Sequence: SAGGSAGGSAGMVTRRMTPEEAEKFIADLPSDWSVEEISPLPENDIVEIKIKVEPPFKLQSAGGSAGGSAGG [r17_98_JUSTAS]
- folding stability dG unfold [1]: 1.76 ± 0.035 kcal/mol
- folding stability dG unfold [2]: 1.28 ± 0.097 kcal/mol
- folding stability dG unfold [3]: -0.199 ± 0.09 kcal/mol

Sequence: SAGGSAGGSAGMVVSVDRATGTFTATDPALGTTTTVPGSEEEVRAYWAERFPDRPVTITASAGGSAGGSAGG [r11_614_JUSTAS]
- folding stability dG unfold [1]: -0.221 ± 0.38 kcal/mol
- folding stability dG unfold [2]: -0.0207 ± 0.15 kcal/mol
- folding stability dG unfold [3]: -0.00347 ± 0.076 kcal/mol

Sequence: SAGGSAGGSAGMYVYKITYPTPSGGASEKLYPSSVPLEEVLKEAEERGAVEIEILPESELSAGGSAGGSAGG [r11_490_JUSTAS]
- folding stability dG unfold [1]: 0.151 ± 0.19 kcal/mol
- folding stability dG unfold [2]: 0.115 ± 0.23 kcal/mol
- folding stability dG unfold [3]: 0.103 ± 0.1 kcal/mol

Sequence: SAGGSAGGSAGNDVINKKYTYTITETTEEKTPTDDPVSTTITTPIEITVKAPKDEVVIPDSAGGSAGGSAGG [r11_174_JUSTAS]
- folding stability dG unfold [1]: 0.644 ± 0.25 kcal/mol
- folding stability dG unfold [2]: 0.31 ± 0.22 kcal/mol
- folding stability dG unfold [3]: -0.6 ± 0.15 kcal/mol

Sequence: SAGGSAGGSAGNSVTILPIPETDKYLVVVSDNSGKFTVFDVDSSDLEDVVKALPSNYTVTSAGGSAGGSAGG [r11_569_TrMRF]
- folding stability dG unfold [1]: 1.13 ± 0.051 kcal/mol
- folding stability dG unfold [2]: 1.04 ± 0.048 kcal/mol
- folding stability dG unfold [3]: 0.881 ± 0.025 kcal/mol

Sequence: SAGGSAGGSAGPDKPIYVMIKFEHPGRKYTHSFEFDSPEDIEEVLDRLPPGYEIKEVEIFSAGGSAGGSAGG [r17_410_TrROS]
- folding stability dG unfold [1]: 0.946 ± 0.25 kcal/mol
- folding stability dG unfold [2]: 0.482 ± 0.2 kcal/mol
- folding stability dG unfold [3]: 0.0221 ± 0.1 kcal/mol

Sequence: SAGGSAGGSAGPEIELREDSLVIRVKAKEGEVIGVPEGLEVEGVVYDPSTGELTVVVRAPSAGGSAGGSAGG [r11_942_TrMRF]
- folding stability dG unfold [1]: 1.73 ± 0.096 kcal/mol
- folding stability dG unfold [2]: 1.83 ± 0.21 kcal/mol
- folding stability dG unfold [3]: 2.31 ± 0.23 kcal/mol

Sequence: SAGGSAGGSAGPEILIVVESEEEAKKLAEELARALREAGLPEDAKIKIKIIVLPKEELEKSAGGSAGGSAGG [r17_180_TrROS_Hall]
- folding stability dG unfold [1]: 2.33 ± 0.048 kcal/mol
- folding stability dG unfold [2]: 2.12 ± 0.066 kcal/mol
- folding stability dG unfold [3]: 1.76 ± 0.062 kcal/mol

Sequence: SAGGSAGGSAGPGVLILRRRFVRPRLIPNTGKLYYEEVELTTNLPIGPIPPNWLNNPNGVSAGGSAGGSAGG [r17_493_TrMRF]
- folding stability dG unfold [1]: 0.0547 ± 0.11 kcal/mol
- folding stability dG unfold [2]: 0.0971 ± 0.14 kcal/mol
- folding stability dG unfold [3]: -0.0517 ± 0.15 kcal/mol
